Assay results as given in US20140065645.

Biological target: T1, FITC-labeled polypeptide linker, coupled to a bead
T1 chain: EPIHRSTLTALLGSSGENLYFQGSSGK

B1: Tobacco etch virus (TEV) protease (protein)
chain: GESLFKGPRDYNPISSTICHLTNESDGHTTSLYGIGFGPFIITNKHLFRRNNGTLLVQSLHGVFKVKNTTTLQQHLIDGRDMIIIRMPKDFPPFPQKLKFREPQREERICLVTTNFQTKSMSSMVSDTSCTFPSSDGIFWKHWIQTKDGQCGSPLVSTRDGFIVGIHSASNFTNTNNYFTSVPKNFMELLTNQEAQQWVSGWRLNADSVLWGGHKVFMSKPEEPFQPVKEATQLMNELVYSQ
Intensity of Signal (FITC fluorescence of the linker-bead complex after 1 hour with TEV protease, 1:1 by mass): 10.3
Intensity of Signal (FITC fluorescence of the linker-bead complex after 1 hour with TEV protease, 1:2 by mass): 9
Ratio of Signal/Background Signal (1:1 TEV protease): 1.24
Ratio of Signal/Background Signal (1:2 TEV protease): 1.08
cleavage of the polypeptide linker: Most polypeptide linkers were cleaved when the mass of the added enzyme was twice the mass of the polypeptide linker.
